Data reported in PMC11987601.
Several values for one entry are separate records, joined by “and”; a condition that tells them apart may be missing. Equal entries are not always repeated.

Columns and labels:
[1] = target: His6-SeFtsZ (Spiroplasma eriocheiris FtsZ) (Spiroplasma eriocheiris)
[2] = target: His6-SeSepF (Spiroplasma eriocheiris SepF) (Spiroplasma eriocheiris); assay: BLI; as a1, in the presence of GTP
[3] = target: His6-SeSepF (Spiroplasma eriocheiris SepF) (Spiroplasma eriocheiris); assay: BLI; His6-SeSepF immobilised on Ni-NTA biosensor tips (10 ug/ml), SeFtsZ or SeFtsZ L272E as analyte (0-100 ug/ml); Octet N1; 50 mM Tris-HCl pH 7.4, 100 mM KCl, 10 mM MgCl2, 0.02% Tween-20; no nucleotide (apo)

Sequence of His6-SeSepF (Spiroplasma eriocheiris SepF) (Spiroplasma eriocheiris) (partner, as listed by the source): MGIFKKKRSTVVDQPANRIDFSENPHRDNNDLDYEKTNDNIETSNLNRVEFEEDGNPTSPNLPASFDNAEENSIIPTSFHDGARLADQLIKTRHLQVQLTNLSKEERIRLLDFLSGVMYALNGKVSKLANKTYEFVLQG

| SeFtsZ retrieved from the pellet fraction with GTP after mixing with SeSepF (sedimentation assay of polymerization; 16% without SeSepF) [1] [%] | Substance | Kd [2] [nM] | Kd [3] |
| --- | --- | --- | --- |
| 28 | His6-SeSepF (Spiroplasma eriocheiris SepF) (natural protein) |  |  |
|  | Spiroplasma eriocheiris FtsZ, His-tag removed (from UniProt A0A0H3XMR3 1-411) (natural protein) | 53900 | 1040 nM and 1130 nM |
|  | SeFtsZ L272E mutant (from UniProt A0A0H3XMR3 1-411) (natural protein) | 700 | 980 nM |
